Laboratory results taken from patent US11673947B2, “Target tissue-specific antigen-binding molecule” (Chugai Seiyaku Kabushiki Kaisha, priority 2012, dated 2023).
Positions count from the first letter of the chain named. One block for each molecule: values may come before it.

Experiments:
[1] = system: CHO/hIL6R (CHO cells expressing human IL-6 receptor); test: ADCC (chrome release) with NK92-CD16(V) as effector cells against CHO/hIL6R cells; type: cell-based; details: in the presence of ATP, various antibody concentrations; variants with increased effector activity
Experimental: The obtained antibodies 6RAD2C1-4_030 and 6RAD2C1-4_011 were assessed by the method described below to test whether ADCC activity against hIL-6R-expressing cells is mediated via hIL-6R binding of the antibodies in the presence of adenosine triphosphate (ATP). […] At various antibody concentrations in the presence or absence of ATP, 6RAD2C1-4_030, 6RAD2C1-4_011, and MRA were assessed for the ADCC activity to hIL-6R-expressing cells according to the method described in Reference Example 3.
Antibodies that bind to antigens in an ATP-dependent manner were assessed for their ADCC activity against antigen-expressing cells at various antibody concentrations according to the method described below. […]
ADCC activity was assessed based on the specific chrome release rate determined by chrome release assay. […] 100 μl of culture supernatant from each well of the plate was measured for radioactivity using a gamma counter. The specific chrome release rate was determined based on the equation described in Reference Example 1.

[2] = Phage ELISA, binding to 2′-adenosine-PEG-biotin, 5′-adenosine-PEG-biotin and ATP-PEG-biotin
Experimental: From single colonies of E. coli obtained by panning as described in the Example above, culture supernatants containing phages were collected according to a conventional method (Method Mol. Biol. (2002) 178, 133-145). The collected culture supernatants were treated by ultrafiltration using NucleoFast 96 (MACHERY-NAGEL). 100 μl of the culture supernatants were added to each well of NucleoFast 96 and centrifuged at 4500 g for 45 minutes to remove flow through. After addition of 100 μl of H2O, the NucleoFast 96 was washed by centrifugation at 4500 g for 30 minutes. After addition of 100 μl of TBS, the NucleoFast 96 was allowed to stand for five minutes at room temperature. Then, phage suspensions were collected from the supernatants.
Purified phages, to which TBS was added, were subjected to ELISA by the following procedure. […] Then, the developed color was assessed by measuring absorbance at 450 nm.
Next, for the purpose of confirming to which antigen of 2′-adenosine-PEG-biotin, 5′-adenosine-PEG-biotin, and ATP-PEG-biotin these clones have binding ability, the purified phages diluted with TBS were subjected to ELISA by the following procedure. […] Then, the developed color was assessed by measuring absorbance at 450 nm.

[3] = Competitive phage ELISA, inhibition of binding to biotin-labeled antigens by ATP; details: ATP from an equal amount up to 10000 times that of the antigen
Experimental: ATNLSA1-4_D12 and PF1 were each diluted with TBS and subjected to ELISA by the following procedure.
A StreptaWell 96 microtiter plate (Roche) was coated at room temperature for one hour with 100 μl of TBS containing biotin-labeled antigens (a mixture of 5′-adenosine-PEG-biotin and ATP-PEG-biotin). After the antigens were removed by washing each well of the plate with TBST, the wells were blocked with 250 μl of 2% skim milk/TBS for one hour or more. 2% skim milk/TBS was removed, and then the prepared, purified phages were added to each well. The plate was allowed to stand at room temperature for one hour to allow binding of the antibody-displaying phages to the antigens in each well. […] For the competition of the immobilized antigen with ATP, the plate was allowed to stand at room temperature for one hour. Then, after TBST wash, an HRP-conjugated anti-M13 antibody (Amersham Pharmacia Biotech) diluted with TBS was added to each well. The plate was incubated for one hour. Following TBST wash, the TMB single solution (ZYMED) was added to each well. The chromogenic reaction in the solution of each well was terminated by adding sulfuric acid. Then, the developed color was assessed by measuring absorbance at 450 nm.

[4] = Biacore T200, binding of D12 and ATNLSA1-4_D12 variants to ATP; details: 50 mM Tris-HCl, 500 mM NaCl, 0.01% Tween20, 15° C.
From the text: Biacore T200 (GE Healthcare) was used to analyze the interaction of D12, in which the constant region of IgG is linked to the variable region of clone ATNLSA1-4_D12 with ATP- and adenosine-binding activity, in antigen-antibody reaction. Sensor chip CM5 or CM4 (GE Healthcare) was immobilized with an appropriate amount of protein A (Life technologies) by amine coupling. The antibody of interest was captured by the chip to allow interaction with ATP (Wako), adenosine (Wako), or ADP (adenosine diphosphate) (Wako) as an antigen. The running buffer used was 50 mM Tris-HCl (Takara, T903), 500 mM NaCl, 0.01% (w/v) Tween20. […] The interaction with the antigen was assessed at 15° C. […]
(§1) The dissociation constant KD (M) was calculated based on the association rate constant ka (1/Ms) and dissociation rate constant kd (1/s), both of which are kinetic parameters calculated from the sensorgram obtained by the measurement. Alternatively, the dissociation constant KD (M) was calculated using steady state analysis. Each parameter was calculated using the Biacore T200 Evaluation Software (GE Healthcare).
Each variant expressed and purified by the method described in Example 7-1 was assayed for its ATP and adenosine binding by the same method as described in Example 7-6 using Biacore. Based on the assay result, the affinity of each variant for ATP was calculated as a KD value. […]

[5] = Biacore T200, binding of D12 to ADP; details: 50 mM Tris-HCl, 500 mM NaCl, 0.01% Tween20, 15° C.
From the text: (§2) Biacore T200 (GE Healthcare) was used to analyze the interaction of D12, in which the constant region of IgG is linked to the variable region of clone ATNLSA1-4_D12 with ATP- and adenosine-binding activity, in antigen-antibody reaction. Sensor chip CM5 or CM4 (GE Healthcare) was immobilized with an appropriate amount of protein A (Life technologies) by amine coupling. The antibody of interest was captured by the chip to allow interaction with ATP (Wako), adenosine (Wako), or ADP (adenosine diphosphate) (Wako) as an antigen. The running buffer used was 50 mM Tris-HCl (Takara, T903), 500 mM NaCl, 0.01% (w/v) Tween20. The antigen was allowed to interact for 30 seconds at a flow rate of 30 μl/min, and was dissociated for 30 seconds. The interaction with the antigen was assessed at 15° C. The antigen was diluted using the same running buffer.
as §1

[6] = Biacore T200, binding of D12 and variants to adenosine (steady state, Formula 2); details: 15° C., specific response with/without 20 μmol/l ADP
From the text: as §2, §1
In addition, the binding response was separately assessed in the presence of 20 μmol/l ADP. […]

Tm measurement by DSC = type: physicochemical
Experimental: Then, for the purpose of improving antibody stability, the framework sequence of ATNLSA1-4_D12 was restored to the germ line sequence VH3-21 by introducing into the framework sequence of ATNLSA1-4_D12, alterations Gln01Glu, Gln05Val, Asp10Gly, Asn30Ser, Leu48Val, and Asn58Tyr (numerals represent Kabat numbers). ATNLSA1-4_D12 variants expressed and purified by the method described in Example 7-1 were measured for their Tm by DSC. DSC measurement was carried out by a method known to those skilled in the art.

B1: 6RAD2C1-4_030: antibody that binds to hIL-6R in the presence of ATP; variable regions SEQ ID NOs: 119 and 120 (antibody, listed as Homo sapiens, V domains shown)
VH: EVQLVESGGDLVKPGGGLRLSCAASGFTFSSYTMNWVRQAPGKGLEWVSSISSRSGYAYYADSVKGRFTISRDNAKNSLYLQMNSLRAEDTAVYYCARFGALNTLNWVFDYWGQGTLVTVSS
VL: QSALTQPPSASGSPGQTVTISCTGTSTDVGDYNYVSWYQQHPGKAPKLMIYQVSKKPSGVPDRFSGSKSGNTASLTVSGLQAEDEADYFCSTRTANAGVLFGGGTKLTVL
ADCC activity against hIL-6R-expressing cells [1]: antibody concentration-dependent ADCC activity

Kd [4]: 8.5 µM
Kd [5]: 250 nM
Kd [6]: 1.1 mM
B2: ATNLSA1-4_D12: ATP/adenosine-binding antibody from human antibody library; variable regions SEQ ID NOs: 46 and 47 (antibody, listed as Homo sapiens, V domains shown)
VH: QVQLQESGGDLVKPGGSLRLSCAASGFTFNTYTMNWVRQAPGKGLEWLSSISSRSNYINYADSVKGRFTISRDNAKNSLYLQMNSLRAEDTAVYYCARFGRKGDLNWVFDYWGQGTLVTVSS
VL: QSALTQPPSASGSPGQSVTISCTGTSSDVGGYNYVSWYQQHPGKAPKLMIYEVSKRPSGVPDRFSGSKSGNTASLTVSGLQAEDEADYFCSSYAGSNNVVFGGGTKLTVL
binding to biotin-labeled antigens (phage ELISA) [2]: had the ability to bind to both 5′-Adenosine-PEG-biotin and ATP-PEG-biotin
binding to antigen in the presence of ATP [3]: inhibited in an ATP concentration-dependent manner
Tm (Tm measurement by DSC): 74.37 °C

B3: 6RAD2C1-4_011: antibody that binds to hIL-6R in the presence of ATP; variable regions SEQ ID NOs: 82 and 83 (antibody, listed as Homo sapiens, V domains shown)
VH: B1 VH with S31G, Y32H, G56S, A58I, F99Y, N103G, T104Q, L105M
VL: B1 VL with Q52S, K56R, T92S, T94S, A95S, N96S, A97M, G98N
ADCC activity against hIL-6R-expressing cells [1]: antibody concentration-dependent ADCC activity
